Measurements taken from PMC12397908, “Cryo-EM structures of the MnmE–MnmG complex reveal large conformational changes and provide new insights into the mechanism of tRNA modification” (Nucleic Acids Research, 2025).

B1: Escherichia coli MnmG (enzyme, E. coli)
chain: MFYPDPFDVIIIGGGHAGTEAAMAAARMGQQTLLLTHNIDTLGQMSCNPAIGGIGKGHLVKEVDALGGLMAKAIDQAGIQFRILNASKGPAVRATRAQADRVLYRQAVRTALENQPNLMIFQQAVEDLIVENDRVVGAVTQMGLKFRAKAVVLTVGTFLDGKIHIGLDNYSGGRAGDPPSIPLSRRLRELPLRVGRLKTGTPPRIDARTIDFSVLAQQHGDNPMPVFSFMGNASQHPQQVPCYITHTNEKTHDVIRSNLDRSPMYAGVIEGVGPRYCPSIEDKVMRFADRNQHQIFLEPEGLTSNEIYPNGISTSLPFDVQMQIVRSMQGMENAKIVRPGYAIEYDFFDPRDLKPTLESKFIQGLFFAGQINGTTGYEEAAAQGLLAGLNAARLSADKEGWAPARSQAYLGVLVDDLCTLGTKEPYRMFTSRAEYRLMLREDNADLRLTEIGRELGLVDDERWARFNEKLENIERERQRLKSTWVTPSAEAAAEVNAHLTAPLSREASGEDLLRRPEMTYEKLTTLTPFAPALTDEQAAEQVEIQVKYEGYIARQQDEIEKQLRNENTLLPATLDYRQVSGLSNEVIAKLNDHKPASIGQASRISGVTPAAISILLVWLKKQGMLRRSA
notes: E. coli MnmG in pET14b, preceded by an N-terminal His-tag and TEV cleavage site; domains described over residues 1-629; Homodimer (β2); also called EcMnmG; β2; source: E. coli BL21(DE3), purified (Ni-NTA IMAC, Superdex200 SEC)

Tests used:
Escherichia coli MnmG [1] = target: B1; assay: ITC; MnmE 700 μM in the syringe, MnmG 70 μM in the cell; with 1 mM FAD; 25°C; 20 mM HEPES pH 7.5, 75 mM NaCl, 75 mM KCl, 5 mM MgCl2, 2 mM β-mercaptoethanol; one set of sites model; details: both partners purified
[2] = target: the molecule itself; assay: cryo-EM structure; MnmE–MnmG complex formed with GppNHp, FAD and K+ (20 mM HEPES pH 7.5, 150 mM KCl, 5 mM MgCl2, 2 mM DTT), purified by SEC; α2β2 and α4β2 classes
Escherichia coli MnmG [3] = target: B1; assay: ITC; MnmE 700 μM in the syringe, MnmG 70 μM in the cell; with 1 mM GppNHp; 25°C; 20 mM HEPES pH 7.5, 75 mM NaCl, 75 mM KCl, 5 mM MgCl2, 2 mM β-mercaptoethanol; one set of sites model; details: both partners purified
Escherichia coli MnmG [4] = target: B1; assay: ITC; MnmE 700 μM in the syringe, MnmG 70 μM in the cell; no ligands; 25°C; 20 mM HEPES pH 7.5, 75 mM NaCl, 75 mM KCl, 5 mM MgCl2, 2 mM β-mercaptoethanol; one set of sites model; details: both partners purified
Escherichia coli MnmG [5] = target: B1; assay: ITC; wild-type or mutant MnmE 700 μM in the syringe, MnmG 70 μM in the cell; with 1 mM FAD and 1 mM GppNHp; 25°C; 20 mM HEPES pH 7.5, 75 mM NaCl, 75 mM KCl, 5 mM MgCl2, 2 mM β-mercaptoethanol; one set of sites model; details: both partners purified

| Binder | Kd (Escherichia coli MnmG [1]) | stoichiometry N (Escherichia coli MnmG [1]) | stoichiometry N [2] | Kd (Escherichia coli MnmG [3]) | stoichiometry N (Escherichia coli MnmG [3]) | Kd (Escherichia coli MnmG [4]) | stoichiometry N (Escherichia coli MnmG [4]) | Kd (Escherichia coli MnmG [5]) | stoichiometry N (Escherichia coli MnmG [5]) |
| --- | --- | --- | --- | --- | --- | --- | --- | --- | --- |
| Escherichia coli MnmE (wild type) (enzyme, E. coli, UniProt P25522 1-454, looked up, E. coli MnmE, wild-type open reading frame in pET20b, preceded by an N-terminal His-tag and TEV cleavage site; 454 residues (K454 is the C-terminal residue); Homodimer (α2); also called EcMnmE; α2; source: E. coli BL21(DE3), purified (Ni-NTA IMAC, alkaline phosphatase treatment, second Ni-NTA, Superdex200 SEC)) MSDNDTIVAQATPPGRGGVGILRISGFKAREVAETVLGKLPKPRYADYLPFKDADGSVLDQGIALWFPGPNSFTGEDVLELQGHGGPVILDLLLKRILTIPGLRIARPGEFSERAFLNDKLDLAQAEAIADLIDASSEQAARSALNSLQGAFSARVNHLVEALTHLRIYVEAAIDFPDEEIDFLSDGKIEAQLNDVIADLDAVRAEARQGSLLREGMKVVIAGRPNAGKSSLLNALAGREAAIVTDIAGTTRDVLREHIHIDGMPLHIIDTAGLREASDEVERIGIERAWQEIEQADRVLFMVDGTTTDAVDPAEIWPEFIARLPAKLPITVVRNKADITGETLGMSEVNGHALIRLSARTGEGVDVLRNHLKQSMGFDTNMEGGFLARRRHLQALEQAAEHLQQGKAQLLGAWAGELLAEELRLAQQNLSEITGEFTSDDLLGRIFSSFCIGK | 0.8 µM | 0.8 | 2 | 0.77 µM | 1.1 | 3.4 µM | 0.9 | 0.42 µM | 0.6 |
| Escherichia coli MnmE K454A (enzyme, E. coli, UniProt P25522 1-454, looked up, E. coli MnmE point variant made by QuikChange from the wild-type open reading frame in pET20b; Variant of m1; source: E. coli BL21(DE3), purified (Ni-NTA IMAC, alkaline phosphatase treatment, second Ni-NTA, Superdex200 SEC)) MSDNDTIVAQATPPGRGGVGILRISGFKAREVAETVLGKLPKPRYADYLPFKDADGSVLDQGIALWFPGPNSFTGEDVLELQGHGGPVILDLLLKRILTIPGLRIARPGEFSERAFLNDKLDLAQAEAIADLIDASSEQAARSALNSLQGAFSARVNHLVEALTHLRIYVEAAIDFPDEEIDFLSDGKIEAQLNDVIADLDAVRAEARQGSLLREGMKVVIAGRPNAGKSSLLNALAGREAAIVTDIAGTTRDVLREHIHIDGMPLHIIDTAGLREASDEVERIGIERAWQEIEQADRVLFMVDGTTTDAVDPAEIWPEFIARLPAKLPITVVRNKADITGETLGMSEVNGHALIRLSARTGEGVDVLRNHLKQSMGFDTNMEGGFLARRRHLQALEQAAEHLQQGKAQLLGAWAGELLAEELRLAQQNLSEITGEFTSDDLLGRIFSSFCIGA |  |  |  |  |  |  |  | 2.2 µM | 0.5 |
| Escherichia coli MnmE-Δ436–454 (domain or fragment, E. coli, UniProt P25522 1-435, looked up, E. coli MnmE without the entire C-terminal swivel helix (deletion of residues 436-454; K454 is the C-terminal residue of MnmE); C-terminal truncation of m1; made from the wild-type open reading frame in pET20b; source: E. coli BL21(DE3), purified (Ni-NTA IMAC, alkaline phosphatase treatment, second Ni-NTA, Superdex200 SEC)) MSDNDTIVAQATPPGRGGVGILRISGFKAREVAETVLGKLPKPRYADYLPFKDADGSVLDQGIALWFPGPNSFTGEDVLELQGHGGPVILDLLLKRILTIPGLRIARPGEFSERAFLNDKLDLAQAEAIADLIDASSEQAARSALNSLQGAFSARVNHLVEALTHLRIYVEAAIDFPDEEIDFLSDGKIEAQLNDVIADLDAVRAEARQGSLLREGMKVVIAGRPNAGKSSLLNALAGREAAIVTDIAGTTRDVLREHIHIDGMPLHIIDTAGLREASDEVERIGIERAWQEIEQADRVLFMVDGTTTDAVDPAEIWPEFIARLPAKLPITVVRNKADITGETLGMSEVNGHALIRLSARTGEGVDVLRNHLKQSMGFDTNMEGGFLARRRHLQALEQAAEHLQQGKAQLLGAWAGELLAEELRLAQQNLSEITG |  |  |  |  |  |  |  | 4.1 µM | 0.8 |
| B1 |  |  | 2 |  |  |  |  |  |  |
| Escherichia coli MnmE-Δ450–454 (domain or fragment, E. coli, UniProt P25522 1-449, looked up, E. coli MnmE without the C-terminal conserved 450FCIGK454 motif (deletion of residues 450-454; K454 is the C-terminal residue of MnmE); C-terminal truncation of m1; made from the wild-type open reading frame in pET20b; source: E. coli BL21(DE3), purified (Ni-NTA IMAC, alkaline phosphatase treatment, second Ni-NTA, Superdex200 SEC)) MSDNDTIVAQATPPGRGGVGILRISGFKAREVAETVLGKLPKPRYADYLPFKDADGSVLDQGIALWFPGPNSFTGEDVLELQGHGGPVILDLLLKRILTIPGLRIARPGEFSERAFLNDKLDLAQAEAIADLIDASSEQAARSALNSLQGAFSARVNHLVEALTHLRIYVEAAIDFPDEEIDFLSDGKIEAQLNDVIADLDAVRAEARQGSLLREGMKVVIAGRPNAGKSSLLNALAGREAAIVTDIAGTTRDVLREHIHIDGMPLHIIDTAGLREASDEVERIGIERAWQEIEQADRVLFMVDGTTTDAVDPAEIWPEFIARLPAKLPITVVRNKADITGETLGMSEVNGHALIRLSARTGEGVDVLRNHLKQSMGFDTNMEGGFLARRRHLQALEQAAEHLQQGKAQLLGAWAGELLAEELRLAQQNLSEITGEFTSDDLLGRIFSS |  |  |  |  |  |  |  | 1.7 µM | 0.6 |
